According to US20210147504A1 (Bayer, published 2021):

What was measured:
Assay in all cases: cell-based or functional assay
human NPRA = target: T1, human NPRA (human, UniProt P16066 33-1061)
T1 sequence (looked up): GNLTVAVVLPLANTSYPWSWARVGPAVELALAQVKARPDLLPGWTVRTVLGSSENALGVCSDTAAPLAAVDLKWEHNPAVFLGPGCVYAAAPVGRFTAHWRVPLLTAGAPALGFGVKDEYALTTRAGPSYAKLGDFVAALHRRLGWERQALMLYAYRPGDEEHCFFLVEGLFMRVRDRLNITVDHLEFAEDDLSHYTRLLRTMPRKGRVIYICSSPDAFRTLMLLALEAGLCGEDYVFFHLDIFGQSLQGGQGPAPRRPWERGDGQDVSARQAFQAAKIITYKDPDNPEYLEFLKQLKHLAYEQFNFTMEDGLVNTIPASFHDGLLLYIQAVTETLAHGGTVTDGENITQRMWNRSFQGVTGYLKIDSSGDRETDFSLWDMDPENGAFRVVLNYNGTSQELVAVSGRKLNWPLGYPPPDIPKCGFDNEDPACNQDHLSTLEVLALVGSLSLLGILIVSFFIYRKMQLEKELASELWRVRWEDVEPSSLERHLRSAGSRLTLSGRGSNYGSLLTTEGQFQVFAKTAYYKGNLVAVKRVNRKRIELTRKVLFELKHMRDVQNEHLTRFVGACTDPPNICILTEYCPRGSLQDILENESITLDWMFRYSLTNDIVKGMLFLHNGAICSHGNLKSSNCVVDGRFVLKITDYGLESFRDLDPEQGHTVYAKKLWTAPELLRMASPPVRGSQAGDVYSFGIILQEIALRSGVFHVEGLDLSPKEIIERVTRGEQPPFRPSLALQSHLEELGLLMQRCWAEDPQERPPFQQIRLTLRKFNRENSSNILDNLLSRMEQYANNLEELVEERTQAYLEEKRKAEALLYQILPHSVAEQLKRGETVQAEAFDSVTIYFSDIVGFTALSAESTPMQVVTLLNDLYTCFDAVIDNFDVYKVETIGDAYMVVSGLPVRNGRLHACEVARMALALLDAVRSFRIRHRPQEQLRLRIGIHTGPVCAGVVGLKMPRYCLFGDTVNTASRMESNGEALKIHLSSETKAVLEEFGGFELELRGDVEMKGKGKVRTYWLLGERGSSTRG

rat ANP receptor (NPR-A) = target: T2, rat ANP receptor (NPR-A) (rat, UniProt P18910 29-1057)
T2 sequence (looked up): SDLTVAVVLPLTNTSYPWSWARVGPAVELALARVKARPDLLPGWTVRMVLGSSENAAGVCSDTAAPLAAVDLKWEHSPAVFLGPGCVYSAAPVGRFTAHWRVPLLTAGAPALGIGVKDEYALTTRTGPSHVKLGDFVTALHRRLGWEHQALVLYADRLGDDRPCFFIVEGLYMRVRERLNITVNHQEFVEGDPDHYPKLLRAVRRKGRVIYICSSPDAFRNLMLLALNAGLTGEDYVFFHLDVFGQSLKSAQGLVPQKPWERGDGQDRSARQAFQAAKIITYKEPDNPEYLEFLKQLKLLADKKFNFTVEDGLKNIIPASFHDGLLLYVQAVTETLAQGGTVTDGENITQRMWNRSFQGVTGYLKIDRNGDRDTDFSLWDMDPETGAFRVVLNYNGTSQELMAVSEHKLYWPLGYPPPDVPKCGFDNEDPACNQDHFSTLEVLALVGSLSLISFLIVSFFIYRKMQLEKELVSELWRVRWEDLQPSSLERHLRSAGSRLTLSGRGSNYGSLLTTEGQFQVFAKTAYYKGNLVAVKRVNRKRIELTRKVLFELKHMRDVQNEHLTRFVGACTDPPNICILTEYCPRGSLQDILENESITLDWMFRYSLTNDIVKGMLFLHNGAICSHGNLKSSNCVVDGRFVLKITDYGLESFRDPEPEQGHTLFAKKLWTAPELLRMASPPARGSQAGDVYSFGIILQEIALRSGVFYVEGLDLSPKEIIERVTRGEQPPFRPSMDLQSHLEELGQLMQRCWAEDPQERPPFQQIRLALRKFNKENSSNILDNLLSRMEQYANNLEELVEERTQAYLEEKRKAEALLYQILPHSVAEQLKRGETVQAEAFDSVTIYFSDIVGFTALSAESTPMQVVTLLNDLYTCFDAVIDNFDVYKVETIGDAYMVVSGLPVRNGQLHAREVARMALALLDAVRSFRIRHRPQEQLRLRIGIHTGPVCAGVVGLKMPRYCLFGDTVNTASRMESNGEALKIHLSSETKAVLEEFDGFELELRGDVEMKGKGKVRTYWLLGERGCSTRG

human NPRA (hNPRA) = target: T3, human NPRA (hNPRA) (human, UniProt P16066 33-1061)
T3 sequence (looked up): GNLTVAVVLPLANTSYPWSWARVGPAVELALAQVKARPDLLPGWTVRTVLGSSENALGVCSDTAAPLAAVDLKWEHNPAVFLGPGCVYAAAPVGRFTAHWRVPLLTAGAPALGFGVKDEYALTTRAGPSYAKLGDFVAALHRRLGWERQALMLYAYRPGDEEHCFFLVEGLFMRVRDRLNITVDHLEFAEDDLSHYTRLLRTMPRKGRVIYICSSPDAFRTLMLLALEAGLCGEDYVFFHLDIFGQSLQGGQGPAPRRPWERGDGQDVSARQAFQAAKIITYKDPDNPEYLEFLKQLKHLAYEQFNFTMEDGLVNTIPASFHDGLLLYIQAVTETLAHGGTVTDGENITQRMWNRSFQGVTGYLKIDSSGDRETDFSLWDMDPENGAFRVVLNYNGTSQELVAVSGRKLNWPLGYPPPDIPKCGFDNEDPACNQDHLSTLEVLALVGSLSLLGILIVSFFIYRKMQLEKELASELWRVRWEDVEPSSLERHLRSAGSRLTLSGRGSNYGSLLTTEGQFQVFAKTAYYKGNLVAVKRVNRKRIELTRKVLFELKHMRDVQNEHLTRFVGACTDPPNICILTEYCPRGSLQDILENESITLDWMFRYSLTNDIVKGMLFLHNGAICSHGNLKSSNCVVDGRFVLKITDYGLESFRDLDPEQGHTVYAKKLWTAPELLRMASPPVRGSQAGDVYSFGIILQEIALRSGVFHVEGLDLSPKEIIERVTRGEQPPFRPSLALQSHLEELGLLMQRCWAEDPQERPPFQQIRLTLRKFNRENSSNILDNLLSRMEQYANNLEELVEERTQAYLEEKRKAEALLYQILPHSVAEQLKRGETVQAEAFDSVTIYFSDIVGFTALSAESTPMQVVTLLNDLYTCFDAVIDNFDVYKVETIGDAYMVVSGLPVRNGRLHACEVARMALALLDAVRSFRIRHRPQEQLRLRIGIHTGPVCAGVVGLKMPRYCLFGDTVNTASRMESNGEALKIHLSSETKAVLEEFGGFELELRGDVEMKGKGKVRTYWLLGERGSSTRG

rat CNP receptor (NPR-B) = target: T4, rat CNP receptor (NPR-B) (rat, UniProt P16067 17-1047)
T4 sequence (looked up): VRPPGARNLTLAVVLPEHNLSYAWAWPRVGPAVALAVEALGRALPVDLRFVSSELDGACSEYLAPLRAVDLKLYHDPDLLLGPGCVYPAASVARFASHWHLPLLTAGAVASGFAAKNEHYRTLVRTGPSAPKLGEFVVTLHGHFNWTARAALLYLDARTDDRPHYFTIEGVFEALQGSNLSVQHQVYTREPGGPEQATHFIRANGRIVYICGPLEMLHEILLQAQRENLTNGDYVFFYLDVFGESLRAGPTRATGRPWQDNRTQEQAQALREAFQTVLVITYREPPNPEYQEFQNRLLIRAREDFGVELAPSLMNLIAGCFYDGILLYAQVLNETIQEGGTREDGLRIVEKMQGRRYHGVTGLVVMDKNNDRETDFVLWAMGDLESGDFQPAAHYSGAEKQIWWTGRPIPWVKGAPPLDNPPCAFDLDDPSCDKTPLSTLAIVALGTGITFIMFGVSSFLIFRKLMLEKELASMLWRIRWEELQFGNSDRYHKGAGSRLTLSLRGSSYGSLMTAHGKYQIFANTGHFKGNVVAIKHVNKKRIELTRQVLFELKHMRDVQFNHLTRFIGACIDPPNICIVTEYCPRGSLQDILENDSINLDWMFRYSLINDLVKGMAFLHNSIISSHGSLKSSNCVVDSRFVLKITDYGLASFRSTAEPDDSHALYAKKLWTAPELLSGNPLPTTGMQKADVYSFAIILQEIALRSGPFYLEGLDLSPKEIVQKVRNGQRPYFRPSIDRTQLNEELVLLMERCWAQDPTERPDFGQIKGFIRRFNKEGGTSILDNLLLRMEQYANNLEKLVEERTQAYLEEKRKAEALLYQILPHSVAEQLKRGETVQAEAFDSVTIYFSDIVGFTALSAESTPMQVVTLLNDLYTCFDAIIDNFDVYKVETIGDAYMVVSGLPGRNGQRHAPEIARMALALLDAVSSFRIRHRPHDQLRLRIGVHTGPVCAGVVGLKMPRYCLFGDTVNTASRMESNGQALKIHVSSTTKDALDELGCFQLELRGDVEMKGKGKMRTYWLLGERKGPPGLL

B1: TPP-10355 (antibody, human IgG1, lambda)
heavy: not shown
light: QSVLTQPPSVSGAPGQRVTISCTGSSSNIGAGYDVHWYQQLPGTAPKLLIYGNSNRPSGVPDRFSGSKSGTSASLAITGLQAEDEADYYCAAWNPNPNPNPNPNGGSGGSLRRSSCFGGRMDRIGAQSGLGCNSFRYGSNPNPNPNPNPNVFGSGTKVTVLGQPKAAPSVTLFPPSSEELQANKATLVCLISDFYPGAVTVAWKADSSPVKAGVETTTPSKQSNNKYAASSYLSLTPEQWKSHRSYSCQVTHEGSTVEKTVAPTECS
Human NPRA
  activity rcs: 94%
  average rel logEC50: -0.2 log vs TPP-5661
  rel. activity rcs: 0.1 log vs TPP-5661
  rel. logEC50 pcs 2: -0.6 log vs TPP-5661
  rel. logEC50 pcs 3: 0.2 log vs TPP-5661
  rel. logEC50 pcs 4: -0.3 log vs TPP-5661

B2: TPP-11156 (antibody, human IgG1, lambda)
heavy: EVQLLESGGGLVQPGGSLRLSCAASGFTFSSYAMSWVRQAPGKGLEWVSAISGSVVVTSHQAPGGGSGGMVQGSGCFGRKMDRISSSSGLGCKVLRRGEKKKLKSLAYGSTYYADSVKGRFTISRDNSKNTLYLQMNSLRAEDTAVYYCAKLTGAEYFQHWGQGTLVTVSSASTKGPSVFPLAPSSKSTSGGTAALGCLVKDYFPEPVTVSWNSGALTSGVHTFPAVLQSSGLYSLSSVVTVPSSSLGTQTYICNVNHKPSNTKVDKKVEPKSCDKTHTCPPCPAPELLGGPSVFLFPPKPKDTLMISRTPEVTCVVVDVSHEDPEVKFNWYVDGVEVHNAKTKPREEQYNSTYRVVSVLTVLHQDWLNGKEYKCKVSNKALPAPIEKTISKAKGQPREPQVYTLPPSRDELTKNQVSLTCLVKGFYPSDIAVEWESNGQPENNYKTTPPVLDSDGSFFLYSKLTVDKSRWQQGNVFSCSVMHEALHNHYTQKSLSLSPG
light: QSVLTQPPSVSGAPGQRVTISCTGSSSNIGAGYDVHWYQQLPGTAPKLLIYGNSNRPSGVPDRFSGSKSGTSASLAITGLQAEDEADYYCQSYDSSLSGVVFGGGTKLTVLGQPKAAPSVTLFPPSSEELQANKATLVCLISDFYPGAVTVAWKADSSPVKAGVETTTPSKQSNNKYAASSYLSLTPEQWKSHRSYSCQVTHEGSTVEKTVAPTECS
Rat ANP receptor (NPR-A)
  EC50, fluorescence signal of rat NPR-A cGMP reporter CHO cell line (GCaMP6/CNGA2): 1200 nM
  EC50 on rNPRA reporter cells: > 1000 nM

B3: TPP-9902 (antibody)
heavy: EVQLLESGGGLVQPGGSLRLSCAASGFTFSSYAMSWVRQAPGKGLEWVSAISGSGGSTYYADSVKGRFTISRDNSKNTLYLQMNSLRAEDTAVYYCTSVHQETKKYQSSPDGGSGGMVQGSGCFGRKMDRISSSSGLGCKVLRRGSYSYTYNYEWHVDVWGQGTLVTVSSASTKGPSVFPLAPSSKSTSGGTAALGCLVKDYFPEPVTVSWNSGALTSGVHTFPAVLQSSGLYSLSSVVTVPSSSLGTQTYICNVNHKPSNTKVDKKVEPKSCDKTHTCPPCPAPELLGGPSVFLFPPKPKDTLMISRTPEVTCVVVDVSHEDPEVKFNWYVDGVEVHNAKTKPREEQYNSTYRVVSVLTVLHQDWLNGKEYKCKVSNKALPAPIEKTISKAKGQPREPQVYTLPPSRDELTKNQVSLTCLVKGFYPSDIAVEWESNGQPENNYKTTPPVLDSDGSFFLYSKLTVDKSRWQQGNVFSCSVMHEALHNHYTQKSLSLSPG
light: QSVLTQPPSVSGAPGQRVTISCTGSSSNIGAGYDVHWYQQLPGTAPKLLIYGNSNRPSGVPDRFSGSKSGTSASLAITGLQAEDEADYYCQSYDSSLSGVVFGGGTKLTVLGQPKAAPSVTLFPPSSEELQANKATLVCLISDFYPGAVTVAWKADSSPVKAGVETTTPSKQSNNKYAASSYLSLTPEQWKSHRSYSCQVTHEGSTVEKTVAPTECS
Rat ANP receptor (NPR-A)
  EC50, fluorescence signal of rat NPR-A cGMP reporter CHO cell line (GCaMP6/CNGA2): 2300 nM
  EC50 on rNPRA reporter cells: > 1000 nM

B4: TPP-5661 (antibody)
heavy: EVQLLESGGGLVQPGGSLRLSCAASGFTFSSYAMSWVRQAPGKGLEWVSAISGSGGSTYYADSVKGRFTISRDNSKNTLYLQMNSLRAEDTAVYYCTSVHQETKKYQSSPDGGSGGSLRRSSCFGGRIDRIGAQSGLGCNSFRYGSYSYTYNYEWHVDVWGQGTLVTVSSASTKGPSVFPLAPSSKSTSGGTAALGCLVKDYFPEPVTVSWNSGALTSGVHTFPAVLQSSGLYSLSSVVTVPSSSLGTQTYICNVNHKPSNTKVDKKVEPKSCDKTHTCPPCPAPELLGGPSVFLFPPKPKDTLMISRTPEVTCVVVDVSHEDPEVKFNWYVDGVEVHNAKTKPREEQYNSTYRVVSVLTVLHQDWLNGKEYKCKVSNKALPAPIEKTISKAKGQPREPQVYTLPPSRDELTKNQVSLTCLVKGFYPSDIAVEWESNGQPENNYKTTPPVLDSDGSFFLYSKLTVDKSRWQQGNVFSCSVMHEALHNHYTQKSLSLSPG
light: QSVLTQPPSVSGAPGQRVTISCTGSSSNIGAGYDVHWYQQLPGTAPKLLIYGNSNRPSGVPDRFSGSKSGTSASLAITGLQAEDEADYYCQSYDSSLSGVVFGGGTKLTVLGQPKAAPSVTLFPPSSEELQANKATLVCLISDFYPGAVTVAWKADSSPVKAGVETTTPSKQSNNKYAASSYLSLTPEQWKSHRSYSCQVTHEGSTVEKTVAPTECS
Human NPRA (hNPRA)
  log EC50, cGMP quantification assay, isolated compound sample (ics) on stable hNPRA-CHO k1 cells: -8.8 log EC50
  log EC50, cGMP quantification assay, purified compound sample (pcs) on stable hNPRA-CHO k1 cells: -9.2 log EC50
  log EC50, cGMP quantification assay, purified compound sample (pcs) on transient hNPRA-HEK293 cells: -9 log EC50
Rat ANP receptor (NPR-A)
  EC50, fluorescence signal of rat NPR-A cGMP reporter CHO cell line (GCaMP6/CNGA2): 17 nM

B5: TPP-10992 (antibody, human IgG4 S228P, lambda)
heavy: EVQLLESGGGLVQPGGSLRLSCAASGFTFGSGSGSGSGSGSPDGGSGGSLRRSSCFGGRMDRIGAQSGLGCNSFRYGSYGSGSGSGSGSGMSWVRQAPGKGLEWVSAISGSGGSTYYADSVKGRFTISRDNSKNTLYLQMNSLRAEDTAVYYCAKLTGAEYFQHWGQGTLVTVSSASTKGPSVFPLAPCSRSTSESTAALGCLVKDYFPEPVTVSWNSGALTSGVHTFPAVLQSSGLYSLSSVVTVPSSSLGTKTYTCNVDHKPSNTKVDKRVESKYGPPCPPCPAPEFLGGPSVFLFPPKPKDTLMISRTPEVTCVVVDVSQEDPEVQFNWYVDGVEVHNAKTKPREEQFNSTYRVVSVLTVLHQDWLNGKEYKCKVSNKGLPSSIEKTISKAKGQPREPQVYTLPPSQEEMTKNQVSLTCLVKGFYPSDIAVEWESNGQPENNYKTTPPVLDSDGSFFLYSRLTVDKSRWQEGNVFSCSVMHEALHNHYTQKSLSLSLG
light: QSVLTQPPSVSGAPGQRVTISCTGSSSNIGAGYDVHWYQQLPGTAPKLLIYGNSNRPSGVPDRFSGSKSGTSASLAITGLQAEDEADYYCQSYDSSLSGVVFGGGTKLTVLGQPKAAPSVTLFPPSSEELQANKATLVCLISDFYPGAVTVAWKADSSPVKAGVETTTPSKQSNNKYAASSYLSLTPEQWKSHRSYSCQVTHEGSTVEKTVAPTECS
Rat ANP receptor (NPR-A)
  EC50, fluorescence signal of rat NPR-A cGMP reporter CHO cell line (GCaMP6/CNGA2): 180 nM

B6: TPP-12377 (antibody)
heavy: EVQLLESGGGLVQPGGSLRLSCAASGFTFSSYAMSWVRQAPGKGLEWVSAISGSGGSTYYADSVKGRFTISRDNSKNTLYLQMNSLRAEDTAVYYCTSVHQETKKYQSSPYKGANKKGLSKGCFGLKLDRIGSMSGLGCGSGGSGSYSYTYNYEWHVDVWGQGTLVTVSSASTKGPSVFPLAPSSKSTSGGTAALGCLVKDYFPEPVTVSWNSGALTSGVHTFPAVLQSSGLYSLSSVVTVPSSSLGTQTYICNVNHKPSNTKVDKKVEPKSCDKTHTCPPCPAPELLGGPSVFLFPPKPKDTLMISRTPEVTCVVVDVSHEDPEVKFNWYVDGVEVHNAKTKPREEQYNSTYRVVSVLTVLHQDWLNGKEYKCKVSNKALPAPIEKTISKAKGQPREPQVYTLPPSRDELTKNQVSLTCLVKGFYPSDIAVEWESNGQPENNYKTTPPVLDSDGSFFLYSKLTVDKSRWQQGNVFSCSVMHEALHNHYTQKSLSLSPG
light: QSVLTQPPSVSGAPGQRVTISCTGSSSNIGAGYDVHWYQQLPGTAPKLLIYGNSNRPSGVPDRFSGSKSGTSASLAITGLQAEDEADYYCQSYDSSLSGVVFGGGTKLTVLGQPKAAPSVTLFPPSSEELQANKATLVCLISDFYPGAVTVAWKADSSPVKAGVETTTPSKQSNNKYAASSYLSLTPEQWKSHRSYSCQVTHEGSTVEKTVAPTECS
Rat CNP receptor (NPR-B)
  EC50, luminescence signal of rat NPR-B cGMP reporter cell line: 4.1 nM

B7: TPP-9465 (antibody)
heavy: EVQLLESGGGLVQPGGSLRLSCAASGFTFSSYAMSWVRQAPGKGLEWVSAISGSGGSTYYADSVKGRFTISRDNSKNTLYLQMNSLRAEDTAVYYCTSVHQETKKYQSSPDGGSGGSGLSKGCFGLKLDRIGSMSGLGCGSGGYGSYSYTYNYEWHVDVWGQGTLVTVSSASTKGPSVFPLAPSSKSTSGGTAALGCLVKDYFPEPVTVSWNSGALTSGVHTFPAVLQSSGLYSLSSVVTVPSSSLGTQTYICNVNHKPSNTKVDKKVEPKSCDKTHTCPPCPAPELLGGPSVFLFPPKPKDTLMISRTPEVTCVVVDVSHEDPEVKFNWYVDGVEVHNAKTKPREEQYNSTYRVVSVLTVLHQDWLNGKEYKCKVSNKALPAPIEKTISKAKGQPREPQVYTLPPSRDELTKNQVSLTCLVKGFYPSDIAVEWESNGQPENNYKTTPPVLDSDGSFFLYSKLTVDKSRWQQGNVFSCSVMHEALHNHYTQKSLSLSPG
light: QSVLTQPPSVSGAPGQRVTISCTGSSSNIGAGYDVHWYQQLPGTAPKLLIYGNSNRPSGVPDRFSGSKSGTSASLAITGLQAEDEADYYCQSYDSSLSGVVFGGGTKLTVLGQPKAAPSVTLFPPSSEELQANKATLVCLISDFYPGAVTVAWKADSSPVKAGVETTTPSKQSNNKYAASSYLSLTPEQWKSHRSYSCQVTHEGSTVEKTVAPTECS
Rat CNP receptor (NPR-B)
  EC50, luminescence signal of rat NPR-B cGMP reporter cell line: 5.2 nM

B8: TPP-12897 (antibody)
heavy: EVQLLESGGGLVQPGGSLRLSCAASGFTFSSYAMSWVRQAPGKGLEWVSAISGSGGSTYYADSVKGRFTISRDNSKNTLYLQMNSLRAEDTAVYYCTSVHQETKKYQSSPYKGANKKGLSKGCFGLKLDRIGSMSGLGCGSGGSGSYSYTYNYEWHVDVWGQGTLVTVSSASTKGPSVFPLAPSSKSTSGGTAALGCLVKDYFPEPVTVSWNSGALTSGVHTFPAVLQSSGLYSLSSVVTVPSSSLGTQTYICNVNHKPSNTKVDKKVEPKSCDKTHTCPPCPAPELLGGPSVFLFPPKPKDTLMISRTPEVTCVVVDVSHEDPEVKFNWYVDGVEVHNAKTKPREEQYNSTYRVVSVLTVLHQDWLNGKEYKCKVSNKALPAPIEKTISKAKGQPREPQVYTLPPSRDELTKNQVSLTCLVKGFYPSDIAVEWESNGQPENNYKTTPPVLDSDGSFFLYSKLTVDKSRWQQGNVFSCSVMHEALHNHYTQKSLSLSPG
light: QSVLTQPPSVSGAPGQRVTISCTGSSSNIGAGYDVHWYQQLPGTAPKLLIYGNSNRPSGVPDRFSGSKSGTSASLAITGLQAEDEADYYCQSYDSSLDGVVFGGGTKLTVLGQPKAAPSVTLFPPSSEELQANKATLVCLISDFYPGAVTVAWKADSSPVKAGVETTTPSKQSNNKYAASSYLSLTPEQWKSHRSYSCQVTHEGSTVEKTVAPTECS
Rat CNP receptor (NPR-B)
  EC50, luminescence signal of rat NPR-B cGMP reporter cell line: 10 nM
